Assay results published in publication PMC8278646 (Microbial Cell Factories, 2021).

Key:
[1] = molecular target: T1, lysozyme from chicken egg white (chicken, UniProt P00698); assay: ELISA; antigen coated on MaxiSorp plates (5 ug/mL, carbonate buffer pH 9.6); antibody fragments purified from culture supernatant by cobalt-based immunoprecipitation, serially diluted; detection by anti-6x-His-tag antibody, OD450; room temperature; conditions: both partners purified
T1 construct: lysozyme C from chicken egg white; source: bought: Sigma-Aldrich

[2] = molecular target: T2, lysozyme from chicken egg white (Lyz, with C-FLAG-tag) (chicken, UniProt P00698); assay: pull-down; Nan-His6 from culture supernatant held on cobalt-based Dynabeads and washed; supernatant with Lyz-FLAG (concentrated eight times) added in pull-down buffer (sodium phosphate pH 7.4, NaCl, Tween-20), 4 C, 30 min; imidazole elution; SDS-PAGE and anti-FLAG western blot; conditions: one partner purified
T2 construct: lysozyme from chicken egg white, synthesised codon-optimised gene with an alpha-factor leader; band of 15 kDa; probably the mature lysozyme behind the leader; A spacer EEGEPK may stand at the N-terminus; source: S. cerevisiae, secreted with alpha-factor leader; culture supernatant concentrated eight times; not shown: FLAG, C-terminal, kept
T2 sequence (P00698 19-147): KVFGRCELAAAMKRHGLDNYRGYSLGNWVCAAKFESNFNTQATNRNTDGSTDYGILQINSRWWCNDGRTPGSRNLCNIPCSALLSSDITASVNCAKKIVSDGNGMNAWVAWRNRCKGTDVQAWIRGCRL

T1 sequence (P00698 19-147): as above

binding result [1]: binds
binding result [2]: binds
B1: Nanobody (Nan, Camelid), single V-type domain against lysozyme (VHH)
VHH: DVQLQASGGGSVQAGGSLRLSCAASGYTIGPYCMGWFRQAPGKEREGVAAINMGGGITYYADSVKGRFTISQDNAKNTVYLLMNSLEPEDTAIYYCAADSTIYASYYECGHGLSTGGYGYDSWGQGTQVTVSS
notes: camelid VhH against lysozyme, 17 kDa; also called VhH; source: S. cerevisiae HA (also LA, MA), secreted with alpha-factor leader; used as culture supernatant and purified from it by cobalt-based immunoprecipitation; not shown: His6, C-terminal, kept
